Patent US6841385B2, “Transcription factor E2F DNA-binding domain inhibitor peptides and their use” (Topotarget UK Limited, priority 1999, dated 2005)
Ends that are not written are not given here. Peptide text beside a SMILES is read from it.

Columns and labels:
recombinant E2F1 and DP1 = target: T1, recombinant E2F1 and DP1 (Homo sapiens, UniProt Q01094); experiment: Band shift assay with recombinant E2F1 and DP1, B-myb E2F-binding site as probe; settings: for IC50: B-myb E2F-binding site as probe, read-out: IC50, inhibition of DNA binding; for inhibition: SEQ ID NO: 2 Alanine-scanning
T1 construct: Purified E2F1 N1-His (64-301) and DP1 N2-GST (84-249) were incubated at 10 μg/ml; His; made in house; host or cells: E. coli BL21 DE3 (pET28b) for E2F1
Description: N-terminal fragments of human E2F1 (aa 64-301), E2F2 (aa 69-306), E2F3 (aa 128-356), E2F4 (aa 1-198), E2F5 (aa 42-233) were cloned into bacterial expression vector pET28b (Novagen) and were purified from BL21 DE3 cells by immobilised metal-affinity chromatography. A N-terminal fragment of DP1 (aa 85-249) was expressed as GST fusion protein and purified by glutathione-affinity chromatography.
Purified E2F1 N1-His (64-301) and DP1 N2-GST (84-249) were incubated at 10 μg/ml in a buffer containing 10 mM HEPES, […], 1 mM EDTA, […], 33 mg/ml BSA and 0.1 μg of sonicated salmon sperm for 10 minutes on ice. ^32P-labelled probe was added and the reaction mixture was incubated at room temperature for 20 minutes. Probes were labelled by filling-in 5′ overhanging ends of 4-7 bases. Samples were run on 4% non denaturing polyacrylamide gel in 0.5% TBE at 4° C. Gels were exposed to X-ray films. Nuclear extract (3 μg) was incubated in 17 μl buffer containing 0.3 M NaCl, 0.4 M Tris pH 7.9, 100 mM EDTA, 0.4 M DTT, 13% glycerol, 1 μg of sonicated salmon sperm on ice. The samples were then incubated for 10 minutes at 30° C. and cooled on ice. ^32P-labelled probe was added, the reaction mixtures were incubated for another 10 minutes at 30° C. and then cooled on ice.
• B-myb: (5′-[…]) (SEQ ID NO:16) • NF-Y: 5′-ATTTTTCTGATTTGGTTAA (SEQ ID NO:17) • Spl: 5′-ATGGGGCGGAGA (SEQ ID NO:18) • ATF: 5′-[…] (SEQ ID NO:19) Introduction of Peptides into Mammalian Cells
The inhibitory potential of the peptides on E2F function was analysed in band shift assays with recombinant E2F1 and DP1. […] The IC50 concentrations for the 3 peptides were in the range of 50-100 μM. Inhibition to various extends was also observed using recombinant fragments of E2F2, E2F3, E2F4, E2F5, respectively. Approximately 100-fold lower IC50 values were found with a branched molecule consisting of 4 copies of SEQ ID NO:2 linked by MAP (multiple antigen peptide).

HL60 cells [1] = experiment: Growth of HL60 cells treated with peptide; format: cell-based; settings: HL60 cells, concentrations between 1-5 μM
Description: (§1) HeLa cells were grown in Dulbecco's Modified Eagle's Medium (DMEM) supplemented with fetal calf serum (FCS) and HL60 cells in RPMI 1640 supplemented with 10% FCS. Cells were treated with peptides in culture medium and incubated overnight before harvesting.
(§2) HeLa, 3T3, W138 cells were treated with varying concentration of MAP-4-SEQ ID NO:2-TAT and a control peptide MAP-4-SEQ ID NO:39-TAT wherein SEQ ID NO:39 is SEQ ID NO:2 but containing 2 alanine substitutions at positions 1 and 4, i.e. AVRAHF (SEQ ID NO:39) DNA replication was analysed by BrdU incorporation after 24 hours.
(§3) Effects became visible after 5-24 hours defending on the concentration of the peptide.

[2] = tested on: C33A (cervical carcinoma); experiment: BrDU proliferation assay, C33A cells; format: cell-based; settings: 24 hrs, dose-dependent
Description: (§4) Four tumor cell lines U2OS (osteosarcoma), C33A (cervical carcinoma), HeLa (cervical carcinoma) and E2F4/ras (derived from primary rat embryo fibroblasts) were treated with the branched peptide MAP-4-SEQ ID NO:2-TAT or mutant control peptide MAP-4-SEQ ID NO:39-TAT for 24 hrs. Cell proliferation was measured using the BrDU proliferation assay from Boehringer Mannheim (Cat No. 1 647 229).

CycA promoter = experiment: Transcription from the CycA promoter, HeLa cells transiently transfected with CycA-Luciferase construct; format: cell-based
Text: This finding is in agreement with the anti-repressor function of E2F in the CycA promoter, (Liu et al, Oncogene (1998), 16, 2957-2963).

HeLa cells = experiment: BrdU incorporation cell proliferation assay, HeLa cells; format: cell-based; settings: 24 hrs, dose-dependent
Description: as §1
The peptides were tested in further experiments for their effect on cell cycle progression and cell viability. For this purpose, the peptides were conjugated at their C-terminus to a cell penetrating HIV-Tat derived peptide (aa 48-60) (Fawell et al. (1994) Proc. Natl. Acad. Sci. USA 91, 664-668).
as §2, §4

HL60 cells [3] = experiment: Nuclease-laddering assay (DNA laddering) in HL60 cells; format: cell-based
Description: Treated cells were collected, washed with PBS, resuspended in lysis buffer (50 mM Tris pH 7.9, 100 mM EDTA, pH 8, 100 mM NaCl, 1% SDS) and 500 μg/ml proteinase K and incubated at 55° C. for 18 h. Cells were then incubated with […] for 1 hour at 37° C., genomic DNA was purified and examined by agarose gel electrophoresis.
as §3

U2OS (osteosarcoma) = experiment: BrDU proliferation assay, U2OS cells; format: cell-based; settings: 24 hrs, dose-dependent
Description: as §4

[4] = tested on: E2F4/ras (derived from primary rat embryo fibroblasts); experiment: BrDU proliferation assay, E2F4/ras cells; format: cell-based; settings: 24 hrs, dose-dependent
Description: as §4

HL60 cells [5] = experiment: Apoptosis, staining of HL60 cells with Heochst 33342 propidium iodide; format: cell-based
Description: as §3

[6] = target: E2F in nuclear extracts from F9 embryonal carcinoma cells; experiment: band shift with F9 nuclear extract; inhibition of E2F DNA binding
[7] = target: E2F in HeLa cells (nuclear extracts; endogenous E2F in transfected HeLa cells); experiment: band shift with HeLa nuclear extract; inhibition of E2F DNA binding
[8] = target: E2F4 overexpressed in stable transfected 3T3 cells (nuclear extract) (UniProt Q16254 2-413, limits assumed); experiment: band shift, extract of 3T3 cells overexpressing E2F4; inhibition of DNA binding
Description: (§5) Probes were labelled by filling-in 5' overhanging ends of 4–7 bases. Samples were run on 4% non denaturing polyacrylamide gel in 0.5% TBE at 4° C. Gels were exposed to X-ray films. […] The samples were then incubated for 10 minutes at 30° C. and cooled on ice. ^32P-labelled probe was added, the reaction mixtures were incubated for another 10 minutes at 30° C. and then cooled on ice.

[9] = target: E2F1 overexpressed in stable transfected 3T3 cells (nuclear extract) (UniProt Q01094 1-437, limits assumed); experiment: band shift, extract of 3T3 cells overexpressing E2F1; inhibition of DNA binding
Description: as §5

[10] = target: E2F3 overexpressed in stable transfected 3T3 cells (nuclear extract) (UniProt O00716 1-465, limits assumed); experiment: band shift, extract of 3T3 cells overexpressing E2F3; inhibition of DNA binding
Description: as §5

[11] = target: E2F5 overexpressed in stable transfected 3T3 cells (nuclear extract) (UniProt Q15329 1-346, limits assumed); experiment: band shift, extract of 3T3 cells overexpressing E2F5; inhibition of DNA binding
Description: as §5

[12] = target: E2F2 overexpressed in stable transfected 3T3 cells (nuclear extract) (UniProt Q14209 1-437, limits assumed); experiment: band shift, extract of 3T3 cells overexpressing E2F2; inhibition of DNA binding
Description: as §5

[13] = target: T2, recombinant E2F1 N1-His (64-301) with DP1 N2-GST (84-249) (human, UniProt Q01094 64-301; Q14186 84-249); experiment: alanine scanning; grade of inhibition of E2F DNA binding (band shift)
T2 construct: range 64-301;range 84-249; Both proteins were incubated together at 10 ug/ml in the band shift assay with a 32P-labelled B-myb E2F-site probe; also called recombinant E2F1 and DP1; not shown: His tag from vector pET28b; GST fusion partner

[14] = target: T2, recombinant E2F1 N1-His (64-301) with …; experiment: band shift, recombinant E2F, inhibition of DNA binding
Description: Samples were run on 4% non denaturing polyacrylamide gel in 0.5% TBE at 4° C. Gels were exposed to X-ray films. […] The samples were then incubated for 10 minutes at 30° C. and cooled on ice. ^32P-labelled probe was added, the reaction mixtures were incubated for another 10 minutes at 30° C. and then cooled on ice.

[15] = target: T2, recombinant E2F1 N1-His (64-301) with …; experiment: deletion analysis; grade of inhibition of E2F DNA binding (band shift)
Description: as §5

[16] = target: T2, recombinant E2F1 N1-His (64-301) with …; experiment: alanine scanning; grade of inhibition of E2F DNA binding (band shift); remark: listed apart in the source
Description: as §5

T2 sequence (Q01094 64-301, chain 1 of 2): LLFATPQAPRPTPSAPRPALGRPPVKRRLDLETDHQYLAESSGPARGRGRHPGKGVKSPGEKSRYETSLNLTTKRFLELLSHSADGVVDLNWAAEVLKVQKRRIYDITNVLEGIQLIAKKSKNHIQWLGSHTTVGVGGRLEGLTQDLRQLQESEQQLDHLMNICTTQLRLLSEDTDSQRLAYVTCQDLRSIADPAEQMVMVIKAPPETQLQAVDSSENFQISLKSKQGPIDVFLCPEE
T2 sequence (Q14186 84-249, chain 2 of 2): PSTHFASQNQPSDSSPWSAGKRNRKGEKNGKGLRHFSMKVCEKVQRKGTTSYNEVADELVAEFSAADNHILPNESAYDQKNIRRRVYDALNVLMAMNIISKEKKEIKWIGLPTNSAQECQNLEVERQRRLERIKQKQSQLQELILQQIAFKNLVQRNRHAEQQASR
T1 sequence (Q01094 64-301): as the sequence (Q01094 64-301, chain 1 of 2) above
T1 sequence (Q14186 84-249 partner): as the sequence (Q14186 84-249, chain 2 of 2) above
Chain of E2F5 overexpressed in stable transfected 3T3 cells (nuclear extract) (Q15329 whole entry): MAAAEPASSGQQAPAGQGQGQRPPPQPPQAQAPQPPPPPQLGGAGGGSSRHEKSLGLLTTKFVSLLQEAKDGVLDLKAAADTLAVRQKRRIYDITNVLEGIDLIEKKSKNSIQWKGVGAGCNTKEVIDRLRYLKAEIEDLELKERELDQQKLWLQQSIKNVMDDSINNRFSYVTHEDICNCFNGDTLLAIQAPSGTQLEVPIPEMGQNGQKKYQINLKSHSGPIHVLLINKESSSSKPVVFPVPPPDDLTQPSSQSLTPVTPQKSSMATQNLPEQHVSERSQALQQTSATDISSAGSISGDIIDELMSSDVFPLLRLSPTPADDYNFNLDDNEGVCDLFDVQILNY
Chain of E2F1 overexpressed in stable transfected 3T3 cells (nuclear extract) (Q01094 whole entry): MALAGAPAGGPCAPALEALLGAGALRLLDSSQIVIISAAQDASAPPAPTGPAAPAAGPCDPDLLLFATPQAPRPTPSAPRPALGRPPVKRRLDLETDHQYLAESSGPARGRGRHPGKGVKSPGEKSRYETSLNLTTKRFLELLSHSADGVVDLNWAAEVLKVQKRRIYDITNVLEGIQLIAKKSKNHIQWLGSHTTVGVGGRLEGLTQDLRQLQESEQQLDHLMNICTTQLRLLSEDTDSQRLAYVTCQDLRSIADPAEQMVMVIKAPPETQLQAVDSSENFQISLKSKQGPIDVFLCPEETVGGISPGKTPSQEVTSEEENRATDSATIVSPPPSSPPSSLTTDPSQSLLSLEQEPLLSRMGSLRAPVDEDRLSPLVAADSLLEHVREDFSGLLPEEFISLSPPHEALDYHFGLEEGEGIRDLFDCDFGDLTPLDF
Chain of E2F4 overexpressed in stable transfected 3T3 cells (nuclear extract) (Q16254 2-413 limits assumed): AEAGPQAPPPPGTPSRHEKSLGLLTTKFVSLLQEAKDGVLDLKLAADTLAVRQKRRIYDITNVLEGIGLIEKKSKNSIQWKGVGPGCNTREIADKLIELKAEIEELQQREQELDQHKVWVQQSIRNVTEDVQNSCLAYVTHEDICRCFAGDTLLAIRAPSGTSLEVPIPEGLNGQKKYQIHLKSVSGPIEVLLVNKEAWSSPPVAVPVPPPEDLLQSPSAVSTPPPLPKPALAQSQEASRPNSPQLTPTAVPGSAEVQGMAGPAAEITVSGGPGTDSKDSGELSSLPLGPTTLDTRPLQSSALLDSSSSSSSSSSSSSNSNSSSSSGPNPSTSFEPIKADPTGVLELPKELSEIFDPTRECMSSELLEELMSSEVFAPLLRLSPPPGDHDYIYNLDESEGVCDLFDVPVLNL
Chain of E2F2 overexpressed in stable transfected 3T3 cells (nuclear extract) (Q14209 whole entry): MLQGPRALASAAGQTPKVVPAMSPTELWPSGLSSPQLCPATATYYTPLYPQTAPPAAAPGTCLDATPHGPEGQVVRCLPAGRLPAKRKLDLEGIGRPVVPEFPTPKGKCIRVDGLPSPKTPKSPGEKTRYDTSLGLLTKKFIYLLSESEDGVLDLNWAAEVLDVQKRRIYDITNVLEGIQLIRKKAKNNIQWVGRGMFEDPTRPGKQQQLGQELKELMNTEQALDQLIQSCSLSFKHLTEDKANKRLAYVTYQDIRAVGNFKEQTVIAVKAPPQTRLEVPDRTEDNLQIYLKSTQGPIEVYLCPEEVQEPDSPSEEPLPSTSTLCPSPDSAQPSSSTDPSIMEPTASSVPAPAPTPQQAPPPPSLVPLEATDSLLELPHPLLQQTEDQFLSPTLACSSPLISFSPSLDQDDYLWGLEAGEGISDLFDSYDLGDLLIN
Chain of E2F3 overexpressed in stable transfected 3T3 cells (nuclear extract) (O00716 whole entry): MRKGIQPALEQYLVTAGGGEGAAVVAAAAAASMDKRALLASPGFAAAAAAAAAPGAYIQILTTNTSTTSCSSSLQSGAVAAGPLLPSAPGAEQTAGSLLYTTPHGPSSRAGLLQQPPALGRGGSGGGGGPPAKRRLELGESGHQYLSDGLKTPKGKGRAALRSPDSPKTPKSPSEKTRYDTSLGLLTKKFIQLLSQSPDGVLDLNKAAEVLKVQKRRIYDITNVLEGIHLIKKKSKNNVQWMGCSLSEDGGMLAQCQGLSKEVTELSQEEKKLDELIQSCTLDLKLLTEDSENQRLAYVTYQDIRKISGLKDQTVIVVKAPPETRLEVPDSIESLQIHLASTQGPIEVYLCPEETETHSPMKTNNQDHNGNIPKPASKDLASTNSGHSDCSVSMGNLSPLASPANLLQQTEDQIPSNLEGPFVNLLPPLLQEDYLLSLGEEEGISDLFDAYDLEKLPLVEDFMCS

`CC(C)[C@H](NC(=O)[C@@H](N)Cc1c[nH]c2ccccc12)C(=O)N[C@@H](CCCNC(=N)N)C(=O)N[C@@H](Cc1c[nH]c2ccccc12)C(=O)N[C@@H](Cc1c[nH]cn1)C(=O)N[C@@H](Cc1ccccc1)C(=O)O` [SEQ ID NO:2, WVRWHF] (H-WVRWHF-OH) gave an IC50 (recombinant E2F1 and DP1) of 50 to 100 µM.

WARWHF [SEQ2-A2] was tested, and the inhibition (recombinant E2F1 and DP1) was 0.

WVAWHF [SEQ2-A3] was tested, and the inhibition (recombinant E2F1 and DP1) was 0.

Work on WVRWAF [SEQ2-A5] yielded an inhibition (recombinant E2F1 and DP1) of 0.

Molecule `CC[C@H](C)[C@H](NC(=O)[C@H](CCCNC(=N)N)NC(=O)[C@H](CO)NC(=O)CN)C(=O)N[C@@H](CC(C)C)C(=O)N[C@H](C(=O)N[C@@H](Cc1ccccc1)C(=O)N[C@@H](CCCNC(=N)N)C(=O)N[C@@H](CO)C(=O)NCC(=O)N[C@@H](CO)C(=O)N[C@@H](Cc1c[nH]c2ccccc12)C(=O)N[C@@H](Cc1ccc(O)cc1)C(=O)N[C@@H](C)C(=O)N[C@@H](CO)C(=O)O)[C@@H](C)O` [SEQ ID NO:5, GSRILTFRSGSWYAS] (H-GSRILTFRSGSWYAS-OH) has an IC50 (recombinant E2F1 and DP1) of 50 to 100 µM.

In the case of `CC[C@H](C)[C@H](N)C(=O)N[C@@H](Cc1c[nH]c2ccccc12)C(=O)N[C@@H](CC(C)C)C(=O)N[C@@H](CO)C(=O)NCC(=O)N[C@@H](CC(C)C)C(=O)N[C@@H](CO)C(=O)N[C@@H](CCCNC(=N)N)C(=O)NCC(=O)N[C@H](C(=O)N[C@@H](Cc1c[nH]c2ccccc12)C(=O)N[C@H](C(=O)N[C@@H](CO)C(=O)N[C@@H](Cc1ccccc1)C(=O)N1CCC[C@H]1C(=O)O)C(C)C)C(C)C` [SEQ ID NO:4, IWLSGLSRGVWVSFP] (H-IWLSGLSRGVWVSFP-OH), the IC50 (recombinant E2F1 and DP1) is reported as 50 to 100 µM.

In the case of “MAP-4-SEQ ID NO:39-TAT: control peptide; SEQ ID NO:39 is SEQ ID NO:2 with 2 alanine substitutions at positions 1 and 4, i.e. AVRAHF (not fully specified (N-terminus, C-terminus); also: MAP-4 branched core) [reference compound]”, the “inhibition of cell proliferation / cell growth” value (HL60 cells [1]) is reported as “no inhibitory effects”, the inhibition of proliferation [2] is reported as “not displayed” and the “effect on transcription from CycA-Luciferase construct” value (CycA promoter) is reported as “No effect”. The inhibition of proliferation (HeLa cells) was “not displayed”, the DNA laddering (HL60 cells [3]) was “No effects” and the inhibition of proliferation (U2OS (osteosarcoma)) was “not displayed”. The inhibition of proliferation [4] was “not displayed” and the “hallmarks of apoptosis after staining” value (HL60 cells [5]) was “No effects”.

B1: peptide SEQ ID NO:5 (…) (peptide)
peptide: GSRILTFRSGSWYAS
In the case of B1, the IC50 [6] is reported as 100 µM and the IC50 [7] is reported as 100 µM.

B2: MAP4-SEQ ID NO:5 (peptide)
peptide: GSRILTFRSGSWYAS
modifications: also: tetravalent MAP core: 4 copies joined by C-terminus to Lys2-Lys-X core
notes: Branched tetravalent peptide on a lysine MAP core
Molecule B2 has an IC50 [8] of about 30 µM, an IC50 [9] of about 30 µM and an IC50 [6] of 10 µM. For the same molecule, the IC50 [10] was about 30 µM, the IC50 [11] was about 30 µM and the IC50 [7] was 10 µM. It also gave an IC50 [12] of about 30 µM.

B3: peptide SEQ ID NO:2 (WVRWHF) (peptide)
peptide: WVRWHF
notes: Synthetic peptide in the band shift assays
B3 was tested, and the concentration without inhibition [6] was over 500 µM, the binding result [13] was “binds” and the concentration without inhibition [7] was over 500 µM.

B4: SEQ2-A2 (WARWHF) (peptide)
peptide: WARWHF
B4: binds [13].

B5: SEQ2-A3 (WVAWHF) (peptide)
peptide: WVAWHF
B5: binds [13].

B6: SEQ2-A5 (WVRWAF) (peptide)
peptide: WVRWAF
B6: binds [13].

B7: MAP4-SEQ ID NO:2 (branched molecule consisting of 4 copies of SEQ ID NO:2 linked by MAP, multiple antigen peptide) (peptide)
peptide: WVRWHF
modifications: also: tetravalent MAP core: 4 copies joined by C-terminus to Lys2-Lys-X core
notes: as for B2
In the case of B7, the “fold lower IC50 (against the unbranched peptides)” value [14] is reported as about 100 fold, the IC50 [8] is reported as about 30 µM and the IC50 [9] is reported as about 30 µM. It also gave a concentration at which inhibition of E2F-DNA binding was found [6] of 10 to 30 µM, an IC50 [10] of about 30 µM and an IC50 [11] of about 30 µM. It also gave a concentration at which inhibition of E2F-DNA binding was found [7] of 10 to 30 µM and an IC50 [12] of about 30 µM.

B8: peptide SEQ ID NO:5 (GSRILTFRSGSWYAS) (peptide)
peptide: GSRILTFRSGSWYAS
notes: as for B3
B8: binds [15].

B9: SEQ5-A3 (GSAILTFRSGSWYAS) (peptide)
peptide: GSAILTFRSGSWYAS
B9: binds [16].

B10: SEQ5-A13 (GSRILTFRSGSWAAS) (peptide)
peptide: GSRILTFRSGSWAAS
B10: binds [16].

B11: SEQ5-5 (3-15) (RILTFRSGSWYAS) (peptide)
peptide: RILTFRSGSWYAS
B11: binds [15].

B12: SEQ5-8 (2-13) (SRILTFRSGSWY) (peptide)
peptide: SRILTFRSGSWY
B12: binds [15].
